# Assay results from US12679878B2, “CRF2 receptor agonists and their use in therapy” (SANOFI, priority 2020, dated 2026).
# Starred links: 1 amine or outer side, 2 acyl side, 3 side chain; linkers in the order of their positions; H or OH if unused. Non-standard residues stand in square brackets, D forms with d. Groups on a side chain read outwards from the residue. No end group written: not given here. *: point of attachment. C18 diacid = O=C(O)CCCCCCCCCCCCCCCCC(=O)*; γGlu = O=C(O)[C@H](CCC(=O)[*:2])N[*:1]; Palmitoyl = CCCCCCCCCCCCCCCC(=O)*; AEEA = NCCOCCOCC(=O)O; Aib = CC(C)(N)C(=O)O
# Biological target: human corticotropin-releasing factor 2α (CRF2 α receptor) (human), Q13324
# Sequence (Q13324 20-411): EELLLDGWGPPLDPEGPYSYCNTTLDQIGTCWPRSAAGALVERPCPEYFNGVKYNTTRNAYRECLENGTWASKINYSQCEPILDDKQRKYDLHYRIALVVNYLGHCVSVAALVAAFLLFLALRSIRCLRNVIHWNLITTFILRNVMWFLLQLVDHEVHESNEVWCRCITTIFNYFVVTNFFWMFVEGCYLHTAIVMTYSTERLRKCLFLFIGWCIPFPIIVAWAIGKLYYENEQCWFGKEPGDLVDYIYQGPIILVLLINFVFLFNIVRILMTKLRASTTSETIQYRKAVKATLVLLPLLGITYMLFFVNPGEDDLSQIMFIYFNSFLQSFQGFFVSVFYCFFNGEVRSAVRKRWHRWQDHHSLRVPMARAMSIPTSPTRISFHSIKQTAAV
# Assay: cell-based or functional assay
"EC50 [nM], 0% HSA [nM]","EC50 [nM], 0.1% HSA [nM]",Binder
0.47,19.9,IVLSLDVPIKLK([AEEA-AEEA-γGlu-C18 diacid])QILLEQARQK[Aib]QREQAEKNKRILERV-NH2 (N-terminus assumed; SMILES CC[C@H](C)[C@H](N)C(=O)N[C@H](C(=O)N[C@@H](CC(C)C)C(=O)N[C@@H](CO)C(=O)N[C@@H](CC(C)C)C(=O)N[C@@H](CC(=O)O)C(=O)N[C@H](C(=O)N1CCC[C@H]1C(=O)N[C@H](C(=O)N[C@@H](CCCCN)C(=O)N[C@@H](CC(C)C)C(=O)N[C@@H](CCCCNC(=O)COCCOCCNC(=O)COCCOCCNC(=O)CC[C@H](NC(=O)CCCCCCCCCCCCCCCCC(=O)O)C(=O)O)C(=O)N[C@@H](CCC(N)=O)C(=O)N[C@H](C(=O)N[C@@H](CC(C)C)C(=O)N[C@@H](CC(C)C)C(=O)N[C@@H](CCC(=O)O)C(=O)N[C@@H](CCC(N)=O)C(=O)N[C@@H](C)C(=O)N[C@@H](CCCNC(=N)N)C(=O)N[C@@H](CCC(N)=O)C(=O)N[C@@H](CCCCN)C(=O)NC(C)(C)C(=O)N[C@@H](CCC(N)=O)C(=O)N[C@@H](CCCNC(=N)N)C(=O)N[C@@H](CCC(=O)O)C(=O)N[C@@H](CCC(N)=O)C(=O)N[C@@H](C)C(=O)N[C@@H](CCC(=O)O)C(=O)N[C@@H](CCCCN)C(=O)N[C@@H](CC(N)=O)C(=O)N[C@@H](CCCCN)C(=O)N[C@@H](CCCNC(=N)N)C(=O)N[C@H](C(=O)N[C@@H](CC(C)C)C(=O)N[C@@H](CCC(=O)O)C(=O)N[C@@H](CCCNC(=N)N)C(=O)N[C@H](C(N)=O)C(C)C)[C@@H](C)CC)[C@@H](C)CC)[C@@H](C)CC)C(C)C)C(C)C) [SEQ ID NO: 125]
0.11,4.37,IVLSLDVPIKLK([AEEA-AEEA-γGlu-C18 diacid])QILLKQARQK[Aib]QRAQAEKNKRILERV-NH2 (N-terminus assumed; SMILES CC[C@H](C)[C@H](N)C(=O)N[C@H](C(=O)N[C@@H](CC(C)C)C(=O)N[C@@H](CO)C(=O)N[C@@H](CC(C)C)C(=O)N[C@@H](CC(=O)O)C(=O)N[C@H](C(=O)N1CCC[C@H]1C(=O)N[C@H](C(=O)N[C@@H](CCCCN)C(=O)N[C@@H](CC(C)C)C(=O)N[C@@H](CCCCNC(=O)COCCOCCNC(=O)COCCOCCNC(=O)CC[C@H](NC(=O)CCCCCCCCCCCCCCCCC(=O)O)C(=O)O)C(=O)N[C@@H](CCC(N)=O)C(=O)N[C@H](C(=O)N[C@@H](CC(C)C)C(=O)N[C@@H](CC(C)C)C(=O)N[C@@H](CCCCN)C(=O)N[C@@H](CCC(N)=O)C(=O)N[C@@H](C)C(=O)N[C@@H](CCCNC(=N)N)C(=O)N[C@@H](CCC(N)=O)C(=O)N[C@@H](CCCCN)C(=O)NC(C)(C)C(=O)N[C@@H](CCC(N)=O)C(=O)N[C@@H](CCCNC(=N)N)C(=O)N[C@@H](C)C(=O)N[C@@H](CCC(N)=O)C(=O)N[C@@H](C)C(=O)N[C@@H](CCC(=O)O)C(=O)N[C@@H](CCCCN)C(=O)N[C@@H](CC(N)=O)C(=O)N[C@@H](CCCCN)C(=O)N[C@@H](CCCNC(=N)N)C(=O)N[C@H](C(=O)N[C@@H](CC(C)C)C(=O)N[C@@H](CCC(=O)O)C(=O)N[C@@H](CCCNC(=N)N)C(=O)N[C@H](C(N)=O)C(C)C)[C@@H](C)CC)[C@@H](C)CC)[C@@H](C)CC)C(C)C)C(C)C) [SEQ ID NO: 124]

# The remaining lines, values behind:
Binder,"EC50 [nM], 0% HSA [nM]","EC50 [nM], 0.1% HSA [nM]"
IVLSLDVPIKLK([AEEA-AEEA-γGlu-C18 diacid])QILLKQERQKKQRQQAEKNKQILAQV-NH2 (N-terminus assumed; SMILES CC[C@H](C)[C@H](N)C(=O)N[C@H](C(=O)N[C@@H](CC(C)C)C(=O)N[C@@H](CO)C(=O)N[C@@H](CC(C)C)C(=O)N[C@@H](CC(=O)O)C(=O)N[C@H](C(=O)N1CCC[C@H]1C(=O)N[C@H](C(=O)N[C@@H](CCCCN)C(=O)N[C@@H](CC(C)C)C(=O)N[C@@H](CCCCNC(=O)COCCOCCNC(=O)COCCOCCNC(=O)CC[C@H](NC(=O)CCCCCCCCCCCCCCCCC(=O)O)C(=O)O)C(=O)N[C@@H](CCC(N)=O)C(=O)N[C@H](C(=O)N[C@@H](CC(C)C)C(=O)N[C@@H](CC(C)C)C(=O)N[C@@H](CCCCN)C(=O)N[C@@H](CCC(N)=O)C(=O)N[C@@H](CCC(=O)O)C(=O)N[C@@H](CCCNC(=N)N)C(=O)N[C@@H](CCC(N)=O)C(=O)N[C@@H](CCCCN)C(=O)N[C@@H](CCCCN)C(=O)N[C@@H](CCC(N)=O)C(=O)N[C@@H](CCCNC(=N)N)C(=O)N[C@@H](CCC(N)=O)C(=O)N[C@@H](CCC(N)=O)C(=O)N[C@@H](C)C(=O)N[C@@H](CCC(=O)O)C(=O)N[C@@H](CCCCN)C(=O)N[C@@H](CC(N)=O)C(=O)N[C@@H](CCCCN)C(=O)N[C@@H](CCC(N)=O)C(=O)N[C@H](C(=O)N[C@@H](CC(C)C)C(=O)N[C@@H](C)C(=O)N[C@@H](CCC(N)=O)C(=O)N[C@H](C(N)=O)C(C)C)[C@@H](C)CC)[C@@H](C)CC)[C@@H](C)CC)C(C)C)C(C)C) [SEQ ID NO: 122],0.04,1.71
FTLSLDVPTKIK([γGlu-Palmitoyl])QKLLKQEKQRKQKQQAKTNAKILARV-NH2 (N-terminus assumed; SMILES CCCCCCCCCCCCCCCC(=O)N[C@@H](CCC(=O)NCCCC[C@H](NC(=O)[C@@H](NC(=O)[C@H](CCCCN)NC(=O)[C@@H](NC(=O)[C@@H]1CCCN1C(=O)[C@@H](NC(=O)[C@H](CC(=O)O)NC(=O)[C@H](CC(C)C)NC(=O)[C@H](CO)NC(=O)[C@H](CC(C)C)NC(=O)[C@@H](NC(=O)[C@@H](N)Cc1ccccc1)[C@@H](C)O)C(C)C)[C@@H](C)O)[C@@H](C)CC)C(=O)N[C@@H](CCC(N)=O)C(=O)N[C@@H](CCCCN)C(=O)N[C@@H](CC(C)C)C(=O)N[C@@H](CC(C)C)C(=O)N[C@@H](CCCCN)C(=O)N[C@@H](CCC(N)=O)C(=O)N[C@@H](CCC(=O)O)C(=O)N[C@@H](CCCCN)C(=O)N[C@@H](CCC(N)=O)C(=O)N[C@@H](CCCNC(=N)N)C(=O)N[C@@H](CCCCN)C(=O)N[C@@H](CCC(N)=O)C(=O)N[C@@H](CCCCN)C(=O)N[C@@H](CCC(N)=O)C(=O)N[C@@H](CCC(N)=O)C(=O)N[C@@H](C)C(=O)N[C@@H](CCCCN)C(=O)N[C@H](C(=O)N[C@@H](CC(N)=O)C(=O)N[C@@H](C)C(=O)N[C@@H](CCCCN)C(=O)N[C@H](C(=O)N[C@@H](CC(C)C)C(=O)N[C@@H](C)C(=O)N[C@@H](CCCNC(=N)N)C(=O)N[C@H](C(N)=O)C(C)C)[C@@H](C)CC)[C@@H](C)O)C(=O)O) [SEQ ID NO: 12],0.09,–
IVLSLDVPIKLK([AEEA-AEEA-γGlu-C18 diacid])QILLEQARQK[Aib]QRAQAEKNKRILERV-NH2 (N-terminus assumed; SMILES CC[C@H](C)[C@H](N)C(=O)N[C@H](C(=O)N[C@@H](CC(C)C)C(=O)N[C@@H](CO)C(=O)N[C@@H](CC(C)C)C(=O)N[C@@H](CC(=O)O)C(=O)N[C@H](C(=O)N1CCC[C@H]1C(=O)N[C@H](C(=O)N[C@@H](CCCCN)C(=O)N[C@@H](CC(C)C)C(=O)N[C@@H](CCCCNC(=O)COCCOCCNC(=O)COCCOCCNC(=O)CC[C@H](NC(=O)CCCCCCCCCCCCCCCCC(=O)O)C(=O)O)C(=O)N[C@@H](CCC(N)=O)C(=O)N[C@H](C(=O)N[C@@H](CC(C)C)C(=O)N[C@@H](CC(C)C)C(=O)N[C@@H](CCC(=O)O)C(=O)N[C@@H](CCC(N)=O)C(=O)N[C@@H](C)C(=O)N[C@@H](CCCNC(=N)N)C(=O)N[C@@H](CCC(N)=O)C(=O)N[C@@H](CCCCN)C(=O)NC(C)(C)C(=O)N[C@@H](CCC(N)=O)C(=O)N[C@@H](CCCNC(=N)N)C(=O)N[C@@H](C)C(=O)N[C@@H](CCC(N)=O)C(=O)N[C@@H](C)C(=O)N[C@@H](CCC(=O)O)C(=O)N[C@@H](CCCCN)C(=O)N[C@@H](CC(N)=O)C(=O)N[C@@H](CCCCN)C(=O)N[C@@H](CCCNC(=N)N)C(=O)N[C@H](C(=O)N[C@@H](CC(C)C)C(=O)N[C@@H](CCC(=O)O)C(=O)N[C@@H](CCCNC(=N)N)C(=O)N[C@H](C(N)=O)C(C)C)[C@@H](C)CC)[C@@H](C)CC)[C@@H](C)CC)C(C)C)C(C)C) [SEQ ID NO: 123],0.33,9.74
IVLSLDVPIKLK([AEEA-AEEA-γGlu-C18 diacid])QILLKQERQKKQREKAEKNKQILAQV-NH2 (N-terminus assumed; SMILES CC[C@H](C)[C@H](N)C(=O)N[C@H](C(=O)N[C@@H](CC(C)C)C(=O)N[C@@H](CO)C(=O)N[C@@H](CC(C)C)C(=O)N[C@@H](CC(=O)O)C(=O)N[C@H](C(=O)N1CCC[C@H]1C(=O)N[C@H](C(=O)N[C@@H](CCCCN)C(=O)N[C@@H](CC(C)C)C(=O)N[C@@H](CCCCNC(=O)COCCOCCNC(=O)COCCOCCNC(=O)CC[C@H](NC(=O)CCCCCCCCCCCCCCCCC(=O)O)C(=O)O)C(=O)N[C@@H](CCC(N)=O)C(=O)N[C@H](C(=O)N[C@@H](CC(C)C)C(=O)N[C@@H](CC(C)C)C(=O)N[C@@H](CCCCN)C(=O)N[C@@H](CCC(N)=O)C(=O)N[C@@H](CCC(=O)O)C(=O)N[C@@H](CCCNC(=N)N)C(=O)N[C@@H](CCC(N)=O)C(=O)N[C@@H](CCCCN)C(=O)N[C@@H](CCCCN)C(=O)N[C@@H](CCC(N)=O)C(=O)N[C@@H](CCCNC(=N)N)C(=O)N[C@@H](CCC(=O)O)C(=O)N[C@@H](CCCCN)C(=O)N[C@@H](C)C(=O)N[C@@H](CCC(=O)O)C(=O)N[C@@H](CCCCN)C(=O)N[C@@H](CC(N)=O)C(=O)N[C@@H](CCCCN)C(=O)N[C@@H](CCC(N)=O)C(=O)N[C@H](C(=O)N[C@@H](CC(C)C)C(=O)N[C@@H](C)C(=O)N[C@@H](CCC(N)=O)C(=O)N[C@H](C(N)=O)C(C)C)[C@@H](C)CC)[C@@H](C)CC)[C@@H](C)CC)C(C)C)C(C)C) [SEQ ID NO: 121],0.73,41.3
